Laboratory results taken from PMC7536154, “Biochemical characterization of ferric uptake regulator (Fur) from Aliivibrio salmonicida. Mapping the DNA sequence specificity through binding studies and structural modelling”.

T1: AsFur (ferric uptake regulator) (Aliivibrio salmonicida, UniProt Q7AUU7 1-147)
T1 sequence: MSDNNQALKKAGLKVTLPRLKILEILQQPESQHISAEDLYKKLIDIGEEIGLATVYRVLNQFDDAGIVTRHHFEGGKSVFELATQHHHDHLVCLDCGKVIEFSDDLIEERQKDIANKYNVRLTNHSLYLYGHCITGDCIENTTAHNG

B1: Vibrio consensus Fur box (dsDNA)
DNA 1: AATGATAATAATTATCATT
DNA 2: AATGATAATTATTATCATT
B2: Vibrio anti-consensus (least conserved) (dsDNA)
DNA 1: CCGTGCGCACTCCGCAGGG
DNA 2: CCCTGCGGAGTGCGCACGG

Assays:
[1] = molecular target: Ferric uptake regulator (Fur) from Aliivibrio salmonicida (Aliivibrio salmonicida); test: SEC; Superdex 200 16/60; 300 mM NaCl, 50 mM Tris-HCl, 5 mM beta-mercaptoethanol, pH 7.5; second purification step after IMAC
[2] = molecular target: T1, AsFur (ferric uptake regulator); test: EMSA; Mn2+ (100 uM MnCl2); EMSA: 20 mM Tris acetate pH 8.0, 1 mM MgCl2, 50 mM KCl, 1 mM DTT, 100 uM MnCl2, RT, 5 uM DNA, 0-80 uM AsFur, gel at 6 C; protection assay: 100 mM BisTrisPropane pH 7.5, 100 mM KCl, 5 mM MgSO4, 20 uM AsFur, 10 nM plasmid, RT then HinfI 37 C; conditions: protein: recombinant; tags: none stated (pDEST14; histidine-rich protein purified by IMAC); chain copies: 2; blunt

| Molecule | stoichiometry N [1] | binding result [2] |
| --- | --- | --- |
| Ferric uptake regulator (Fur) from Aliivibrio salmonicida (natural protein) | 2 | – |
| B1 | – | binds |
| B2 | – | no binding |
